The results in this text go back to PMC10082178.

Experiment [1] deals with integrin αIIbβ3 (human (endogenous in platelets)) (UniProt P05106). The experiment is described as follows: native gel or EMSA; SMA-PAGE: whole cell SMALPs of resting human platelets (2.5% SMA, NaCl to 500 mM) on native Tris-Glycine gels, western blot with anti-αIIb or anti-CLEC-2 AYP2.
Experiment [2] deals with N-terminal eGFP-tagged human CLEC-2 (CLEC-2-eGFP) (human) (UniProt Q9P126).
Chain of UniProt Q9P126 (Q9P126 whole entry): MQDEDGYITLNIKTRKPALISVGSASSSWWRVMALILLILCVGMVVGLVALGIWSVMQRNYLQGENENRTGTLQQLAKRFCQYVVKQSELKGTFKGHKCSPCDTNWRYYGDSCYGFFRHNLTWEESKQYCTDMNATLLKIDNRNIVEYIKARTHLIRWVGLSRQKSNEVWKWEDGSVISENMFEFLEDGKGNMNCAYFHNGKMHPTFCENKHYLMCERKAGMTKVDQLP

Broadly, the stoichiometry N is the number of molecules, sites or subunits per partner or assembly. Consider “integrin αIIbβ3 (from UniProt P05106 27-788) (complex)”, for which the stoichiometry N in experiment [1] amounted to 2.

Substance rhodocytin (complex) showed an NFAT-luciferase response to rhodocytin (30 nM) in low-expressing CLEC-2-eGFP (100 ng) DT40 cells: percent blocked by LUAS-2 (3 μM, 30 min before rhodocytin) in experiment [2] of 50%.
